# Test results published in patent US20060093553A1, “Cd26-based therapies for cancers and immune disease” (priority 2002, published 2006).
# B1: sCD26/DPPIV^−: mutant sCD26 without DPPIV activity, Ser630 replaced by Ala at the active site (protein)
# chain: MKGLLGAAALVTIITVPVVLLNKGTDDATADSRKTYTLTDYLKNTYRLKLYSLRWISDHEYLYKQENNILVFNAEYGNSSVFLENSTFDEFGHSINDYSISPDGQFILLEYNYVKQWRHSYTASYDIYDLNKRQLITEERIPNNTQWVTWSPVGHKLAYVWNNDIYVKIEPNLPSYRITWTGKEDIIYNGITDWVYEEEVFSAYSALWWSPNGTFLAYAQFNDTEVPLIEYSFYSDESLQYPKTVRVPYPKAGAVNPTVKFFVVNTDSLSSVTNATSIQITAPASMLIGDHYLCDVTWATQERISLQWLRRIQNYSVMDICDYDESSGRWNCLVARQHIEMSTTGWVGRFRPSEPHFTLDGNSFYKIISNEEGYRHICYFQIDKKDCTFITKGTWEVIGIEALTSDYLYYISNEYKGMPGGRNLYKIQLSDYTKVTCLSCELNPERCQYYSVSFSKEAKYYQLRCSGPGLPLYTLHSSVNDKGLRVLEDNSALDKMLQNVQMPSKKLDFIILNETKFWYQMILPPHFDKSKKYPLLLDVYAGPCSQKADTVFRLNWATYLASTENIIVASFDGRGSGYQGDKIMHAINRRLGTFEVEDQIEAARQFSKMGFVDNKRIAIWGWAYGGYVTSMVLGSGSGVFKCGIAVAPVSRWEYYDSVYTERYMGLPTPEDNLDHYRNSTVMSRAENFKQVEYLLIHGTADDNVHFQQSAQISKALVDVGVDFQAMWYTDEDHGIASSTAHQHIYTHMSHFIKQCFSLP
# What was measured:
# Format in all cases: cell-based, Human
# [1] = system: PBMC subpopulations (CD3, CD14, CD19, CD56); assay: sCD26-OG incorporation into PBMC subpopulations (flow cytometry); conditions: 24 h, presence or absence of TT; FIG. 9
# Experimental: Assessment of the PBMC population that takes up sCD26-OG was performed with PE-conjugated anti-CD3, anti-CD14, anti-CD19, and anti-CD56 mAbs (10 μg/ml). For these experiments, 1×10^6 PBMC/well were incubated in standard medium containing sCD26-OG for 24 h with or without preincubation with TT. Cells were then washed twice in ice-cold PBS, followed by incubation for 2 min in acidic PBS (pH 3.0) to strip any sCD26-OG attached to the cell surface. Cells were subsequently washed in ice-cold PBS and were incubated with mouse Ig isotypes (1 μg/ml) to block nonspecific binding; this was followed by reaction with PE-conjugated mabs.
# (§1) Flow cytometric analysis of 10,000 viable cells was conducted on FACSCalibur (BD Biosciences, Mountain View, Calif.). Each experiment was repeated at least three times, and the results were provided in the form of a histogram of a representative experiment, or increased mean percent±SE fluorescent intensity compared with control or untreated cells.
# CD86 mRNA in monocytes = assay: Relative quantitative RT-PCR assay; conditions: monocytes with TT 16 h then sCD26 0.5 μg/ml 24 h
# [2] = system: monocytes and purified T cells; assay: Reconstitution/fixation study: T cell proliferation with preincubated monocytes ([3H]TdR); conditions: TT-pulsed monocytes fixed with 0.05% glutaraldehyde before or after sCD26; FIGS. 12A, 12B
# Experimental: All cells were preincubated in the standard medium for 24 h to minimize the risk of potential interference from sCD26 present in human serum (Tanaka et al., 1993). In these studies, cells were incubated in 96-well plates (200 μl/well; Falcon, Franklin Lakes, N.J.). For the time-course study, 1.0×10^5 PBMC were incubated with 0.5 μg/ml TT for 16 h. Then, 0.5 μg/ml sCD26 was added to the well and was incubated for 0, 6, 12, 24, 48, 72, and 96 h. The day when the first sCD26 was added to the culture well was defined as day 0 of culture. All assays in proliferation experiments were performed on day 7 of culture after cells were incubated at 37° C. in a 5% CO2 humidified atmosphere. For the reconstitution study, 0.5×10^6 of monocytes were preincubated with TT, at a concentration of 0.5 μg/ml with different concentrations of sCD26 for 24 h. Monocytes were washed with PBS, and then 1×10^4/well of preincubated monocytes were subjected to the assay with 1×10^5/well of purified T cells from the same donor as the prepared monocytes. […]
# T-cell proliferation induced by APC was measured by [^3H]TdR (ICN Radiochemicals, Irvine, Calif.) uptake. Seven-day-incubated cells were pulsed with 1 μCi/well of [^3H]TdR 8 h before harvesting onto a glass-fiber filter (Wallac, Turk, Finland), and the incorporated radioactivity was quantified by a liquid scintillation counter (Wallac).
# monocytes = assay: Confocal laser microscopy of sCD26 uptake
# Experimental: For fluorescent microscopy studies of uptake of sCD26 by monocytes; purified monocytes were incubated with sCD26-OG (1 μg/ml) with or without preincubation with. TT (0.5 μg/ml). Cells were then washed in ice-cold PBS twice and were incubated in acidic PBS (pH 3.0) to strip any sCD26-OG attached to the cell surface. The cells were then attached to microslide glass (Matsunami Glass, Tokyo, Japan) and fixed with 3% paraformaldehyde in PBS for 15 min at room temperature. Cells were blocked with mouse Ig isotypes (1 μg/ml) for 30 min at 4° C., followed by incubation with biotinylated anti-CD14 (10 μg/ml) for 30 min at 4° C., then washed with ice-cold PBS twice and incubated with streptavidin-conjugated Texas red conjugate (1/200; Beckman Coulter) for 30 min at 4° C. In studies of sCD26 uptake via M6P/IGF-IIR on monocytes, purified monocytes were incubated with or without TT for 16 h, and sCD26-OG and M6P/IGF-IIR-red were added to the culture well after being blocked with mouse Ig isotypes (1 μg/ml) for 30 min at 4° C. Cells were then incubated for 30 min at 4° C. For detection of cell surface colocalization, cells were washed in ice-cold PBS twice and were attached to microslide glass, followed by fixation with 3% paraformaldehyde in PBS for 15 min at room temperature. […]
# [3] = system: CD86 expression on monocytes; assay: Surface expression on monocytes (flow cytometry); conditions: after TT and sCD26 stimulation; FIG. 13
# Experimental: In studies assessing the expression of CD80, CD86, and HLA-DR on purified monocytes (0.5×10^6 monocytes/well), monocytes were preincubated with or without TT (0.5 μg/ml) for 16 h. Following incubation with sCD26 (0.5 μg/ml) for 24 h, FITC-conjugated CD80, CD86, and HLA-DR mAbs (10 μg/ml) were used with PE-conjugated anti-CD14 (10 μg/ml) to gate exclusively on the monocyte population. In experiments assessing the effect of M6P on cellular uptake of sCD26, purified monocytes (0.5×10^6 monocytes/well) were incubated with the appropriate concentration of M6P in the presence or absence of sCD26-OG for 24 h in standard medium. Cells were then washed twice in ice-cold PBS, followed by incubation for 2 min in acidic PBS (pH 3.0) to strip any sCD26-OG attached to the cell surface. Cells were washed in ice-cold PBS and were incubated with mouse Ig isotypes (1 μg/ml) to block nonspecific binding; this was followed by reaction with PE-conjugated anti-CD14 (10 μg/ml) to gate exclusively on monocyte population.
# as §1
# PBMC = assay: TT-induced proliferation of PBMC, time-course ([3H]TdR incorporation); conditions: DPPIV-deficient mutant sCD26 in PBMC time-course
# Text: Human PBMC, collected from healthy adult volunteers who were immunized with TT within two years before donation, were isolated by centrifugation on Ficoll/Paque (Amersham Pharmacia Biotech, Piscataway, N.J.). PBMC were directly used for the time-course studies. For the reconstitution studies, PBMC were further purified into T cell fractions and APC fractions. To obtain a highly purified T cell population, PBMC were separated into an E rosette-positive (E^+) population and were used as resting T cells as determined by flow cytometric analysis (FACSCalibur; Nippon BD Biosciences, Tokyo, Japan) using an FITC-labeled anti-CD3 mAb (BD PharMingen, San Diego, Calif.) with purity being >95%. To obtain APC, an E rosette-negative (E^−) population was adhered to plastic plates for 4 h at 37° C., and adherent cells were used as APC. Monocytes were either purified by a flow cytometer on the basis of PE-labeled anti-CD14 mAb (BD PharMingen)-oriented parameter, or by negative selection through the use of immunomagnetic beads coated with an anti-CD3, CD7, CD19, CD45RA, CD56, and IgE mAb Qailtenyi Biotec, Auburn, Calif.) with purity being >95%. […]
# T-cell proliferation induced by APC was measured by [^3H]TdR (ICN Radiochemicals, Irvine, Calif.) uptake. […]
molecule,measurement,setting,value
B1,PBMC population that takes up sCD26,[1],preferentially taken up by CD14-positive monocytes
same,CD86 mRNA levels (RT-PCR),CD86 mRNA in monocytes,did not demonstrate enhanced CD86 mRNA levels
same,CD86 mRNA levels (RT-PCR),CD86 mRNA in monocytes; listed as sCD26/DPPIV^+,increased mRNA levels
same,"enhanced T cell proliferation, fixation study",[2],seen only when the monocytes were incubated with sCD26/DPPIV^+ before fixation
same,intracellular detection of sCD26 in monocytes,monocytes; 36 h after incubation of monocytes with sCD26,no longer detectable intracellularly
same,uptake by monocytes (confocal microscopy),monocytes; sCD26-OG 1 μg/ml,clearly taken up by monocytes
same,CD86 expression on monocytes,[3],did not affect CD86 expression
same,enhancing effect of TT-induced T cell proliferation,PBMC,not observed
